# Results taken from the supplement of paper PMC10724198.
# ± gives the standard deviation of the averaged measurements.
# System: Saccharomyces cerevisiae
# Experiment: protein stability index of tFT-peptide fusion (C-terminal peptide) (PSI (0-1 scale)); higher = more stable (slower turnover)
# Conditions: genetic background: wild type; temperature: 30 C
# 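Further: PSI is a weighted mean of sequencing reads over stability bins, variants kept only with over 10 reads, mCherry proximal and sfGFP distal, peptide attached via GGGS linker.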
row,Sequence,protein stability index
1,REVYLFSSSCRG,0.623 ± 0.027
2,TPLPSLPRPSAP,0.736 ± 0.016
3,SPTLPLTRRHPR,0.718 ± 0.035
4,PAVHLYFIPPTG,0.644 ± 0.038
5,CLVDSSSFSLIF,0.742 ± 0.065
6,RPTRSLYLLPLI,0.699 ± 0.019
7,GKLHKNTDEIET,0.762 ± 0.062
8,LKLLIPPSFSLI,0.611 ± 0.027
9,SPSPPPTPGSPP,0.718 ± 0.15
10,YPLPFRHASIPF,0.606 ± 0.096
11,LLLFPLPLLPFH,0.686 ± 0.037
12,GYNTSMHVQYQT,0.764 ± 0.02
13,PLTPPRLPRPFH,0.7123 ± 0.0065
14,GACGSTLPASSR,0.668 ± 0.058
15,LMKSPGGTLTIR,0.71 ± 0.053
16,TLCTSPWGVVAV,0.511 ± 0.024
17,QFRRKGMITECK,0.7161 ± 0.0029
18,CCFAGFAVWSVD,0.7 ± 0.019
19,VDRLDAACCIFC,0.601 ± 0.031
20,WYWGGWMRGCGW,0.75 ± 0.048
21,VPRPLPPSPLLV,0.644 ± 0.13
22,FPVPPPPHPPLH,0.675 ± 0.027
23,VGDGQGWGGQGG,0.688 ± 0.0075
24,PPSRDRSGCISV,0.709 ± 0.021
25,FPFGRMNVSGGC,0.701 ± 0.026
26,AVYSDCARNITW,0.714 ± 0.047

row,Sequence,protein stability index
1,RHKVVLQPRPQV,0.649 ± 0.039
2,EREGGWEVNKWR,0.757 ± 0.079
3,RYSLMRAVRDRL,0.775 ± 0.17
4,EYIWLSLGSVYI,0.624 ± 0.05
5,QCAPVFIAVCRL,0.681 ± 0.14
6,QSAPPPLPPRRR,0.69 ± 0.03
7,FRSPRLSPSFFF,0.717 ± 0.027
8,RIIRPRSTKDHP,0.745 ± 0.14
9,RPPPPPPPPPSP,0.723 ± 0.089
10,LMGDRRLFSFSV,0.719 ± 0.12
11,AVKMLGRGLVLV,0.624 ± 0.032
12,CYRLFPLSSFIP,0.689 ± 0.085
13,GWVGGCGCGRGI,0.694 ± 0.034
14,FGARKVELRWMV,0.53 ± 0.0092
15,VMVTMGNMDSEA,0.635 ± 0.031
16,VCLFWGVSAGCK,0.65 ± 0.04
17,VLGSYFNGIWLF,0.534 ± 0.019
18,GGFGGAWRGWAP,0.692 ± 0.016
19,FSFFQFSASFFL,0.699 ± 0.039
20,DICFTPGVVNAS,0.6587 ± 0.0038
21,PPAPPPPLLNLP,0.714 ± 0.014
22,PQSIHASIYFRL,0.634 ± 0.02
23,KEKSRNIKKRRK,0.705 ± 0.079
24,PTMGRRPGRGGA,0.6987 ± 0.00073
25,GLATISARYFCL,0.647 ± 0.064
26,CPTVLWPRSPRN,0.688 ± 0.027

row,Sequence,protein stability index
1,IFGMSIMLNRIT,0.541 ± 0.041
2,RNTRAPTRNVPE,0.674 ± 0.028
3,QFERSVFLANAL,0.679 ± 0.023
4,RGRGSLPGFKSL,0.654 ± 0.058
5,GTRAVSKLNPDA,0.701 ± 0.02
6,FWDSCAVSLYLR,0.632 ± 0.041
7,HPPTCTTVLPTL,0.579 ± 0.023
8,CFPPVGPTSPTI,0.745 ± 0.022
9,HLRIAHTPDSPR,0.703 ± 0.0082
10,LVLYPFPPLHST,0.6749 ± 0.0053
11,EVVRTWAVVEGG,0.646 ± 0.11
12,FVLRFRGMRPSN,0.673 ± 0.019
13,HAKVFLMGCSYV,0.692 ± 0.072
14,EEEAETRHSMVY,0.738 ± 0.041
15,LCTALLRSLTVG,0.744 ± 0.13
16,TPLPLPPPRPSP,0.685 ± 0.0031
17,SPLLASPSHLSL,0.71 ± 0.083
18,NEQGTIIKRYKK,0.737 ± 0.045
19,PSPLPSSGHPPP,0.6206 ± 0.0046
20,SSCVSDKLLKNG,0.695 ± 0.011
21,NPLRTQASTTAQ,0.72 ± 0.096
22,RCSLGWKRFDWR,0.706 ± 0.061
23,LPSPLGSSIFSN,0.693 ± 0.015
24,ARCLETKPVMNA,0.666 ± 0.03
25,WGVSARDPVFKE,0.654 ± 0.018
26,NNSCPQGHPDAR,0.7574 ± 0.0065

row,Sequence,protein stability index
1,TEVSDVSWSEVW,0.696 ± 0.025
2,SYVYETERNEST,0.715 ± 0.019
3,IPQIVRKLVPLT,0.575 ± 0.007
4,WQLKGNGGREAL,0.671 ± 0.034
5,GVLRPVWVLGGS,0.624 ± 0.017
6,VSVLVAFDTLPG,0.711 ± 0.034
7,PRAPRVSTRRPE,0.793 ± 0.083
8,THSLSCPPRNPP,0.647 ± 0.07
9,EVLFWRGVSRME,0.725 ± 0.16
10,QSARMRRKSNLP,0.674 ± 0.028
11,GWGCARRRGGRV,0.683 ± 0.015
12,RKNDSKKNCVKE,0.705 ± 0.089
13,EWGDLDGRGEPR,0.74 ± 0.0075
14,LLSSPSVSPPPD,0.6754 ± 0.0022
15,PLPPRPPPLPLP,0.716 ± 0.013
16,GVRIVRRGLRRV,0.731 ± 0.013
17,RPRPPLASPSPP,0.7005 ± 0.0013
18,HPISLSYPSPFV,0.665 ± 0.13
19,GLARPLYALYRR,0.618 ± 0.081
20,APLSPSAPPPPP,0.709 ± 0.031
21,PPSLAPPPTSRP,0.679 ± 0.054
22,PPPLSQSPPSRR,0.612 ± 0.029
23,CDYAWSSSASLG,0.56 ± 0.017
24,LFVSCGGCLAMF,0.687 ± 0.0077
25,SPPCSPSALSHL,0.728 ± 0.053
26,TRRVKWSWLLKP,0.7 ± 0.08

row,Sequence,protein stability index
1,INHNKNKTIIAL,0.655 ± 0.0075
2,RPSPPALPRFLL,0.703 ± 0.0073
3,RVWYNVGEGPVR,0.699 ± 0.0085
4,SSLVAFPPLPAP,0.731 ± 0.024
5,SFVFRLGEVGSS,0.603 ± 0.12
6,GDRNNLRCWNAS,0.712 ± 0.11
7,VDCTCLPKRTYE,0.643 ± 0.1
8,EGSLHLHLSLST,0.66 ± 0.029
9,SRGNIPVCEGWS,0.742 ± 0.028
10,APPPPLPPPPSP,0.689 ± 0.092
11,GSAHSFTLLVLP,0.742 ± 0.043
12,PAPLFFCAPFFF,0.715 ± 0.034
13,ITLQGDWCRLVD,0.715 ± 0.092
14,EEREKKWKGKGK,0.718 ± 0.035
15,VASLSGGQISFG,0.612 ± 0.029
16,PLNPSPSCPPTL,0.676 ± 0.023
17,AEERTSETRYKN,0.656 ± 0.0079
18,IRPFALSPSSLP,0.658 ± 0.12
19,LGAGLIGCALVE,0.645 ± 0.036
20,RADAPPPTRPEA,0.744 ± 0.011
21,PIPPRLPPPPPP,0.589 ± 0.057
22,SFDFRKGDPTSD,0.667 ± 0.02
23,PLPPPPVSLPAP,0.617 ± 0.064
24,FCGLCCDPNRVP,0.708 ± 0.036
25,LILSSGSPAFKT,0.66 ± 0.039
26,LTPYLYPQPSSP,0.673 ± 0.031

row,Sequence,protein stability index
1,GKLRGTGGRAGE,0.669 ± 0.012
2,IPPLNQDPFCAS,0.678 ± 0.017
3,GSGAICAFGFWC,0.6599 ± 0.0041
4,PSTPSPSCAPPS,0.7087 ± 0.0017
5,RWGVFRSLPSPS,0.622 ± 0.17
6,DHLVLSGPPPPV,0.733 ± 0.056
7,ERGKREMRKNLT,0.681 ± 0.018
8,PPPLPRPFPPFP,0.697 ± 0.019
9,SPAAGGRVGVRR,0.715 ± 0.021
10,INWNVMDRVTCN,0.633 ± 0.12
11,VPAALAGADCSP,0.763 ± 0.085
12,PENKSLITSPRV,0.628 ± 0.098
13,RCFSLFYIYCPA,0.525 ± 0.0065
14,IGSEKGKIGVGC,0.677 ± 0.067
15,GGRGRGMGGIFG,0.667 ± 0.053
16,VSLGRRGDRGLC,0.719 ± 0.031
17,KIERSKKKRRKG,0.66 ± 0.079
18,FLRYVLLPSLFV,0.499 ± 0.01
19,PPAPTPSPSPPP,0.68 ± 0.1
20,QFSPPLSLAPLP,0.783 ± 0.05
21,LYIRHPPSAPLP,0.808 ± 0.13
22,ECVRWFKNTDRL,0.721 ± 0.032
23,AFPSCCFFLSLS,0.662 ± 0.073
24,RLCPWNLSDADL,0.71 ± 0.0091
25,TARVPARLTHAS,0.683 ± 0.029
26,VWVEVDGLLVVV,0.534 ± 0.043

row,Sequence,protein stability index
1,YVLITGSTIPDN,0.694 ± 0.026
2,RYNPPRGIHNDL,0.651 ± 0.043
3,AKWGGDGCGARM,0.764 ± 0.082
4,LPPPPYPEFYPC,0.772 ± 0.0089
5,PPPSSPPTHLTS,0.678 ± 0.012
6,QAVPRAAHLHPL,0.66 ± 0.11
7,NDQWKKENRGKK,0.737 ± 0.013
8,REWVAGGGVVGV,0.679 ± 0.031
9,GCGLVGVVTGRD,0.71 ± 0.14
10,GERLGECGGGVG,0.6652 ± 0.0021
11,EIHKDSNTENIK,0.663 ± 0.0031
12,VAACVSLFCGAL,0.719 ± 0.074
13,LPRERSFRLYKA,0.739 ± 0.016
14,KSDTAWSHPYPS,0.6793 ± 0.00097
15,WAFYFPWSSSLM,0.726 ± 0.036
16,PPNPSTPSACPP,0.717 ± 0.052
17,RYKSVPLHCISN,0.671 ± 0.022
18,GLPRFFKNPPVV,0.6445 ± 0.0043
19,TRRKVKYTELYQ,0.69 ± 0.041
20,FCLGPSLSSSSL,0.714 ± 0.027
21,ALSFISYPFPLL,0.642 ± 0.1
22,PPAPPTSLPSPL,0.726 ± 0.019
23,KKIKKRNIKKKT,0.67 ± 0.032
24,LSFTFSQLLSFP,0.681 ± 0.16
25,FCPPLAFPPPLS,0.743 ± 0.028
26,LISNTGTKWAMI,0.674 ± 0.053

row,Sequence,protein stability index
1,CQYKRRLKTTET,0.732 ± 0.0085
2,AAPHDVARPTTR,0.689 ± 0.015
3,SVIYQMMGRIVR,0.723 ± 0.07
4,PFLAWTILPLTY,0.701 ± 0.0074
5,PFSRIFSPLSLL,0.68 ± 0.045
6,PRPRQPPPPPPP,0.689 ± 0.0076
7,PLPSLSPLPPPL,0.701 ± 0.017
8,RLDRGLHIKAIT,0.704 ± 0.014
9,PGAVNRASDGEV,0.6061 ± 0.005
10,GVGLVLLGVVSG,0.513 ± 0.025
11,RLIIRYESYTSD,0.709 ± 0.013
12,LSALPSRPCSKR,0.6893 ± 0.005
13,VECEARTVEKAN,0.63072 ± 0.00022
14,SPLRHIPPLHTP,0.686 ± 0.1
15,RRERQNEKMTYH,0.656 ± 0.078
16,PPSPASASPDRR,0.695 ± 0.022
17,AFALFVGKVLRC,0.566 ± 0.021
18,PSHTPNHTGYPD,0.681 ± 0.02
19,QSPRRQLEGKLE,0.619 ± 0.046
20,AAGDLGNKCGWG,0.68 ± 0.025
